The target of the assay is HLA-A2 Ag on A375SM melanoma cells (human). The assay can be described thus: cell-based or functional assay.

anti-HLA-A2 mAb MA2.1 (antibody) displayed an inhibition of lysis of A375SM melanoma cells by I-100-CTL and I-102-CTL (51Cr release assay) above 50%.

These data come from patent US20060141532A1.
